{
  "source": "paper PMC2714181",
  "key": {"[1]": {"target": "Cys29 (UniProt position 29, FWATWCGPCKM)", "conditions": "reduced active-site thiol(s) implied, not stated; cited from earlier work"}, "[2]": {"target": "Cys32 (UniProt position 33, FWAEWCGPCKM)", "conditions": "reduced active-site thiol(s) implied, not stated; cited from earlier work"}, "[3]": {"target": "Cys10 (UniProt position 10, TIYFICTGNSA)", "experiment": "UV-vis", "conditions": "poly buffer: 1 mM EDTA, 10 mM Na-borate, 10 mM Na-phosphate, 10 mM Na-citrate (starting pH 8), titrated by stepwise addition of 100 mM HCl; oxidized with arsenate (Cys82-Cys89 disulfide), Cys10 free thiol"}, "[4]": {"target": "Cys29 (UniProt position 29, FWATWCGTSKM)", "conditions": "reduced active-site thiol(s) implied, not stated; cited from earlier work"}, "[5]": {"target": "Cys89 (UniProt position 89, DADNNCPILPP)", "experiment": "UV-vis", "conditions": "poly buffer: 1 mM EDTA, 10 mM Na-borate, 10 mM Na-phosphate, 10 mM Na-citrate, 10 mM CAPS (starting pH 11.4), titrated by stepwise addition of 100 mM HCl; reduced (DTT-treated, DTT removed), free protein"}},
  "data": [
    {"substance": "Thioredoxin (Sa_Trx), wild type (Staphylococcus aureus)", "values": [
      {"measurement": "pKa", "setting": "[1]", "result": 7.1}
    ]},
    {"substance": "Thioredoxin 1 (Ec_Trx1) (Escherichia coli)", "values": [
      {"measurement": "pKa", "setting": "[2]", "result": 7.1}
    ]},
    {"substance": "Arsenate reductase ArsC (plasmid pI258), C15A, oxidized form (Staphylococcus aureus; C15A)", "values": [
      {"measurement": "pKa", "setting": "[3]", "result": 6.8}
    ]},
    {"substance": "Thioredoxin (Sa_Trx, Trx1) P31T/C32S (Staphylococcus aureus; P31T;C32S)", "values": [
      {"measurement": "pKa", "setting": "[4]", "result": 6.4}
    ]},
    {"substance": "Arsenate reductase ArsC (plasmid pI258), C10S/C15A/C82A triple mutant (Sa_ArsC^Trip) (Staphylococcus aureus; C10S;C15A;C82A)", "values": [
      {"measurement": "pKa", "setting": "[5]", "result": 9.5}
    ]}
  ]
}
